The target in this test is T1, SIVmac239 Nef core domain, GS-Nef (Asp95–Ser235) (simian immunodeficiency virus, isolate …, UniProt P31818 95-235).
T1 construct: source: E. coli BL21 (DE3), purified (Ni-NTA under 8 M urea, dialysis, thrombin cleavage, anion exchange, SEC)
T1 sequence: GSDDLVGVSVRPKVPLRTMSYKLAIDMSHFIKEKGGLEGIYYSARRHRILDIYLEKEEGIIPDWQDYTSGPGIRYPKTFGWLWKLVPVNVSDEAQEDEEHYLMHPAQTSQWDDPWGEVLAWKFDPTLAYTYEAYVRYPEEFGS
Nature of the test: not stated; unpublished results; stoichiometry of the complex. The following applies: both partners purified.

One may read the stoichiometry N as the number of molecules, sites or subunits per partner or assembly.

B1: TCRζDP1 (Leu51–Asp93), N-terminal acid-cleavage fragment of the TCRζ cytoplasmic domain (domain or fragment)
chain: LRVKFSRSADAPAYQQGQNQLYNELNLGRREEYDVLDKRRGRD
notes: also called longer TCRζ polypeptide; source: acid cleavage of purified TCRζcyt (30% acetonitrile, 0.5% TFA, 48 h, 323 K), isolated by reverse-phase chromatography
On to B1, for which the “stoichiometry N” value is 1.

(Values after article PMC2815668, “Pseudo-merohedral twinning and noncrystallographic symmetry in orthorhombic crystals of SIVmac239 Nef core domain bound to different-length TCRζ fragments” (Acta Crystallographica Section D: Biological Crystallography, 2010).)
